Measured values from IntAct's records for PubMed 9528767.

B1: Small nuclear ribonucleoprotein E (Saccharomyces cerevisiae), Q12330 (parent)
chain: MSNKVKTKAMVPPINCIFNFLQQQTPVTIWLFEQIGIRIKGKIVGFDEFMNVVIDEAVEIPVNSADGKEDVEKGTPLGKILLKGDNITLITSAD
B2: Small nuclear ribonucleoprotein E (Saccharomyces cerevisiae), Q12330 (parent)
chain: B1 chain
partner: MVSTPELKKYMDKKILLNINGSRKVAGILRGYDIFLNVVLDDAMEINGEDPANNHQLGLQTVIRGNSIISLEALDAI

Variants of: B1
Conditions: with ruxf_yeast SMX3, P54999
Chain of ruxf_yeast SMX3, P54999 (P54999 whole entry): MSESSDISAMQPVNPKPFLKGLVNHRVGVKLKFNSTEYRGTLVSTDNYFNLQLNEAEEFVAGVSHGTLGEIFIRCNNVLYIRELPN

Variant | effect of a mutation on the interaction
MSNKVKTKAMVPPINCIFNFLQQQTPVTIWLFEQIGIRIKGKIVGFDEFANVVIDEAVEIPVNSADGKEDVEKGTPLGKILLKGDNITLITSAD [M50A] | decreasing interaction strength
MSNKVKTKAMVPPINCIFNFLQQQTPVTIWLFEQIGIRIKGKIVGFDEFMNVVNDEAVEIPVNSADGKEDVEKGTPLGKILLKGDNITLITSAD [I54N] | disrupting interaction strength
MSNKVKTKAMVPPINCIFNFLQQQTPVTIWLFEQIGIRIKGKIVGFDEFMNVVIDEAVEIPVNSADGKEDVEKGTPLGKFLLKGDNITLITSAD [I80F] | decreasing interaction strength
MSNKVKTKAMVPPINCIFNFLQQQTPVTIWLFEQIGIRIKGKIVGFDEFMAVVIDEAVEIPVNSADGKEDVEKGTPLGKILLKGDNITLITSAD [N51A] | decreasing interaction strength
MSNKVKTKAMVPPINCIFNFLQQQTPETIWLFEQIGIRIKGKIVGFDEFMNVVIDEAVEIPVNSADGKEDVEKGTPLGKILLKGDNITLITSAD [V27E] | disrupting interaction strength
MSNKVKTKAMVPPINCIFNFLQQQTPVTIWLFEQIGIRIKGKIVGFDEFMNVVIDEAVEIPVNSADGKEDVEKGTSLGKILLKGDNITLITSAD [P76S] | with no effect
MSNKVKTKAMVPPINCIFNFLQQQTPVTIWLFEQIGIRIKGKIVVFDEFMNVVIDEAVEIPVNSADGKEDVEKGTPLGKILLKGDNITLITSAD [G45V] | with no effect
MSNKVKTKAMVPPINCIFNFLLQQTPVTIWLFEQIGIRIKGKIVGFDEFMNVVIDEAVEIPVNSADGKEDVEKGTPLGKILLKGDNITLITSAD [Q22L] | disrupting interaction strength
MSNKVKTKAMVPPINCIFNFLQQQTPVTIWLFEQIGIRIKGKIVGFHEFMNVVIDEAVEIPVNSADGKEDVEKGTPLGKILLKGDNITLITSAD [D47H] | disrupting interaction strength
MSNKVKTKAMVPPINCIFNFLQQQTPVTIWLFEQIGIRIKGKIVGFAEFMNVVIDEAVEIPVNSADGKEDVEKGTPLGKILLKGDNITLITSAD [D47A] | disrupting interaction strength
MSNKVKTKAMVPPINCIFNFLQQQTPVTIWLFEQIGIRIKGKIVGFDEFMNVVIDEAVAIPVDSADGKEDVEKGTPLGKILLKGDNITLITSAD [E59A;N63D] | with no effect
MSNKVKTKAVVPPINCIFNFLQQQTPVTIWLFEQIGIRIKGKIVGFDEFMNVVIDEAVEIPVNSADGKEDVEKGTPLGKILLKGDNITLITSAD [M10V] | with no effect

Second part, the variant after the results:

effect of a mutation on the interaction | Variant
disrupting interaction strength | MSNKVKTKAMVPPINCIFNFLQQQTPVTIWLFEQIGIRIKGKIVGFDEFMNVVIDEAVEIPVNSADGKEDVEKGTPLGKIPLKGDNITLITSAD [L81P]
with no effect | MSNKVKTKAMVPPINCIFNFLQQQTPVTIWSFEQIGIRIKGKIVGFDEFMNVVIDEAVEIPVNSADGKEDVEKGTPLGKILLKGDNITLITSAD [L31S]
decreasing interaction strength | MSNKVKTKAMVPPINCIFNFLQQQTPVTIWLFEQIGIRIKGKIVGFDEFMNVVIDEAVEIPVNSADGKEDVEKGTPLGKILLKGDNITLRTSAD [I90R]
disrupting interaction strength | MSNKVKTKAMVPPINCIFNFLQQQTPVTKWLFEQIGIRIKGKIVGFDEFMNVVIDEAVEIPVNSADGKEDVEKGTPLGKILLKGDNITLITSAD [I29K]
increasing interaction strength | MSTKVKTKAMVPPINCIFNFLQQQTPVTIWLFEQIGIRIKGKIVGFDEFMNVVIDEAVEIPVNSADGKEDVEKGTPLGKILLKGDNITLITSAD [N3T]
with no effect | MSNKVETKAMVPPINCIFNFLQQQTPVTIWLFEQIGIRIKGKIVGFDEFMNVVIDEAVEIPVNSADGKEDVEKGTPLGKILLKGDNITLITSAD [K6E]
disrupting interaction strength | MSNKVKTKAMVPPINCIFNFLQQQTPVTIWLFEQIGIRIKDKIVGFDEFMNVVIDEAVEIPVNSADGKEDVEKGTPLGKILLKGDNITLITSAD [G41D]

Variants of: B2
Conditions: with ruxg_yeast SMX2, P40204

Variant | effect of a mutation on the interaction
MSNKVKTKAMVPPINCIFNFLLQQTPVTIWLFEQIGIRIKGKIVGFDEFMNVVIDEAVEIPVNSADGKEDVEKGTPLGKILLKGDNITLITSAD [Q22L] | disrupting interaction strength

Variants of: B2
Conditions: with ruxg_yeast SMX2, P40204
Remark: another data set of the same source

Variant | effect of a mutation on the interaction
MSNKVETKAMVPPINCIFNFLQQQTPVTIWLFEQIGIRIKGKIVGFDEFMNVVIDEAVEIPVNSADGKEDVEKGTPLGKILLKGDNITLITSAD [K6E] | with no effect
MSNKVKTKAMVPPINCIFNFLQQQTPETIWLFEQIGIRIKGKIVGFDEFMNVVIDEAVEIPVNSADGKEDVEKGTPLGKILLKGDNITLITSAD [V27E] | disrupting interaction strength
MSNKVKTKAMVPPINCIFNFLQQQTPVTIWLFEQIGIRIKDKIVGFDEFMNVVIDEAVEIPVNSADGKEDVEKGTPLGKILLKGDNITLITSAD [G41D] | disrupting interaction strength
MSNKVKTKAMVPPINCIFNFLQQQTPVTIWLFEQIGIRIKGKIVGFHEFMNVVIDEAVEIPVNSADGKEDVEKGTPLGKILLKGDNITLITSAD [D47H] | decreasing interaction strength
MSNKVKTKAMVPPINCIFNFLQQQTPVTIWLFEQIGIRIKGKIVGFDEFANVVIDEAVEIPVNSADGKEDVEKGTPLGKILLKGDNITLITSAD [M50A] | decreasing interaction strength
MSNKVKTKAMVPPINCIFNFLQQQTPVTIWLFEQIGIRIKGKIVGFDEFMNVVIDEAVAIPVDSADGKEDVEKGTPLGKILLKGDNITLITSAD [E59A;N63D] | with no effect
MSNKVKTKAMVPPINCIFNFLQQQTPVTIWLFEQIGIRIKGKIVGFDEFMNVVIDEAVEIPVNSADGKEDVEKGTSLGKILLKGDNITLITSAD [P76S] | with no effect
MSNKVKTKAMVPPINCIFNFLQQQTPVTIWLFEQIGIRIKGKIVGFDEFMNVVIDEAVEIPVNSADGKEDVEKGTPLGKIPLKGDNITLITSAD [L81P] | with no effect
MSNKVKTKAMVPPINCIFNFLQQQTPVTIWLFEQIGIRIKGKIVGFDEFMNVVIDEAVEIPVNSADGKEDVEKGTPLGKILLVGDNITLITSAD [K83V] | with no effect

The remaining lines, values ahead:

effect of a mutation on the interaction | Variant
with no effect | MSTKVKTKAMVPPINCIFNFLQQQTPVTIWLFEQIGIRIKGKIVGFDEFMNVVIDEAVEIPVNSADGKEDVEKGTPLGKILLKGDNITLITSAD [N3T]
with no effect | MSNKVKTKAVVPPINCIFNFLQQQTPVTIWLFEQIGIRIKGKIVGFDEFMNVVIDEAVEIPVNSADGKEDVEKGTPLGKILLKGDNITLITSAD [M10V]
disrupting interaction strength | MSNKVKTKAMVPPINCIFNFLQQQTPVTKWLFEQIGIRIKGKIVGFDEFMNVVIDEAVEIPVNSADGKEDVEKGTPLGKILLKGDNITLITSAD [I29K]
with no effect | MSNKVKTKAMVPPINCIFNFLQQQTPVTIWSFEQIGIRIKGKIVGFDEFMNVVIDEAVEIPVNSADGKEDVEKGTPLGKILLKGDNITLITSAD [L31S]
with no effect | MSNKVKTKAMVPPINCIFNFLQQQTPVTIWLFEQIGIRIKGKIVVFDEFMNVVIDEAVEIPVNSADGKEDVEKGTPLGKILLKGDNITLITSAD [G45V]
decreasing interaction strength | MSNKVKTKAMVPPINCIFNFLQQQTPVTIWLFEQIGIRIKGKIVGFAEFMNVVIDEAVEIPVNSADGKEDVEKGTPLGKILLKGDNITLITSAD [D47A]
with no effect | MSNKVKTKAMVPPINCIFNFLQQQTPVTIWLFEQIGIRIKGKIVGFDEFMAVVIDEAVEIPVNSADGKEDVEKGTPLGKILLKGDNITLITSAD [N51A]
disrupting interaction strength | MSNKVKTKAMVPPINCIFNFLQQQTPVTIWLFEQIGIRIKGKIVGFDEFMNVVNDEAVEIPVNSADGKEDVEKGTPLGKILLKGDNITLITSAD [I54N]
with no effect | MSNKVKTKAMVPPINCIFNFLQQQTPVTIWLFEQIGIRIKGKIVGFDEFMNVVIDEAVEIPVNSADGKEDVEKGTPLGKFLLKGDNITLITSAD [I80F]
with no effect | MSNKVKTKAMVPPINCIFNFLQQQTPVTIWLFEQIGIRIKGKIVGFDEFMNVVIDEAVEIPVNSADGKEDVEKGTPLGKILLKADNITLITSAD [G84A]
decreasing interaction strength | MSNKVKTKAMVPPINCIFNFLQQQTPVTIWLFEQIGIRIKGKIVGFDEFMNVVIDEAVEIPVNSADGKEDVEKGTPLGKILLKGDAITLITSAD [N86A]
disrupting interaction strength | MSNKVKTKAMVPPINCIFNFLQQQTPVTIWLFEQIGIRIKGKIVGFDEFMNVVIDEAVEIPVNSADGKEDVEKGTPLGKILLKGDNITLRTSAD [I90R]
